Assay [1] deals with pIκBα-associated ubiquitin-ligase. The assay can be described thus: In vitro ubiquitination of pIκBα/NF-κB complex immunopurified from TNFα-stimulated HeLa cells with E1 and UBC5C. Format: biochemical, human. To be noted: Bestatin 40 μg/ml, FIG. 5. The procedure: To further study the recruitment of components of the ubiquitin machinery by phosphorylated IκBα-complexes, pIκBα/NF-κB complexes were purified from proteasome inhibited, TNF-α stimulated HeLa cells, and their ubiquitination potential was evaluated. HeLa cells were pre-incubated with the proteasome inhibitor ALLN (150 μM) for 1 hour and stimulated for 10 minutes with TNFα. […]
The immunopurified fraction was supplemented with various components of the ubiquitin system and subjected to in vitro ubiquitination. […] The reaction mix was then boiled in SDS-buffer and the sample analyzed by SDS-PAGE (8.5%) and phospho-imaging.
To determine the source of the IκBα-conjugates, the ubiquitination reactions were performed in the presence of a pIκBα peptide (pp12; CDRHDS[PO3]GLDS[PO3]; SEQ ID NO:22) (lane 7) or a serine/glutamic-acid substituted IκBα peptide (p12S/E) (lane 8). Both peptides were synthetic, purchased from Alfa-Diagnostic, Inc., and then HPLC-purified, analyzed by mass spectrometry, verified for the predicted structure and proven to be over 85% pure. […]

Assay [2] relates to ubiquitin-ligase activity associated with the pIκB-complex. The assay is described as follows: Recruitment of ubiquitin-ligase activity from HeLa lysate to IKK2-EE phosphorylated IκBα/NF-κB complex. The format is biochemical, human. To be noted: peptide included in incubation with HeLa lysate, FIG. 6. Here is the method:
Following immunoprecipitation of ^35S-labeled IκBα/NF-κB complexes from a non-stimulated HeLa lysate previously incubated with recombinant ^35S-labeled IκBα, the complexes were phosphorylated by the recombinant IKK2-EE, eluted with the p65 cognate peptide and subjected to in vitro ubiquitination. After incubation with IKK2-EE, nearly all of the ^35S-IκB was phosphorylated. […] Therefore, IκB phosphorylation by IKK was not sufficient to promote its ubiquitination in the presence of E1 and E2. Conceivably, pIκBα ubiquitination requires an additional component of the HeLa lysate that was not co-immunopurified from non-stimulated cells.
To confirm this hypothesis, immuno-bound IκBα/NF-κB complexes were incubated with a non-stimulated HeLa lysate, either directly or following IKK2-EE phosphorylation, washed extensively with high-salt buffer and eluted with the p65 peptide. Indeed, incubation of the phosphorylated IκB complexes (FIG. 6 lane 3), but not of the non-phosphorylated ones (lane 1), with the HeLa lysate, provided the pIκB-ligase component(s) necessary for pIκBα conjugation. No signal was obtained when E1 or E2 were omitted from the reaction, confirming that the signal at the top of the gel represents poly-ubiquitin IκBα-conjugates (lanes 5, 6). […]

In assay [3] the test system is pIκBα-associated proteins (p54, p58, p61, 64 kD). The assay can be described thus: Association of 35S-labeled HeLa lysate proteins with immuno-bound pIκBα/NF-κB complex (SDS-PAGE, autoradiography). Format: binding, human. To be noted: peptide added to radiolabeled HeLa lysate, FIG. 7B. Here is the method:
HeLa extract (250 mg) was incubated with 250 μl anti-p65 immunobeads. Following four washes in buffer A (1M KCl, 0.5% NP40, 50 mM Tris buffer pH 7.6, 1 mM DTT) and one wash in buffer B (50 mM Tris buffer, pH 7.6, 1 mM DTT), half the beads were subject to in vitro phosphorylation with IKK and half underwent mock-phosphorylation. The beads were washed twice in buffer A and once in buffer B, agitated with 100 mg HeLa extract in the presence of 1 μm okadaic acid for 30 min at 25° C., washed four times with buffer A, once in buffer A and eluted with 1 mg/ml p65 peptide. A similar experiment was performed with 10 mg ^35 S-metabolically-labeled HeLa cell lysate (100 μCi/ml Met/Cys for 8 hours) and 25 μl p65-immunobeads. Eluate-fractions derived from both the hot and cold lysates were mixed, boiled in SDS-sample buffer and analyzed by 7.5% SDS-PAGE and autoradiography. Gel slices corresponding to the autoradiogram signals were excised and their protein-bands sequenced by mass-spectrometry, as described below.
To circumvent the possible masking of the putative pIκB-ubiquitin ligase, we replaced the ligase source with ^35S-biosynthetically-labeled HeLa lysate and traced the IκBα-associated proteins by SDS-PAGE analysis and autoradiography (FIG. 7B). In parallel, the various fractions were tested for their ubiquitin-ligase capacity. […]

A further assay deals with T1, β-TrCP (Homo sapiens, UniProt Q9Y297).
T1 construct: made in house; host or cells: transfected 293 (293T) cells, immunoprecipitated through FLAG
T1 sequence (P63208 whole entry partner, one chain of several): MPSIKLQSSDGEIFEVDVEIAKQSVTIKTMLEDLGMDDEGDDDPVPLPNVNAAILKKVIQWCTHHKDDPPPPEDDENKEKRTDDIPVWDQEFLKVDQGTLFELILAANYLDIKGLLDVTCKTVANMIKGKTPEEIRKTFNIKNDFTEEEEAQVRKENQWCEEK
The assay can be described thus: Peptide competition of β-TrCP binding to pIκBα. To be noted: FIG. 11B. Here is the method: (§1) FIGS. 11A-11C are Western blots illustrating binding and ubiquitination specificity of E3 ubiquitin ligase family members. Within these figures, mβ-TrCP indicates mouse β-TrCP, hβ-TrCP indicates human β-TrCP, Δβ-TrCP indicates human β-TrCP with a deletion of the F box region and Slimb indicates the Drosophila Slimb protein. FIG. 11A illustrates selective binding to pIκBα. Proteins were immunoprecipitated through a FLAG epitope from transfected 293T cells, incubated with immunopurified IκBα/NF-κB complex, which had been treated (−/+IKK) as indicated and the bound material was analyzed by Western blotting with the indicated antibodies. […] FIG. 11C illustrates in vitro ubiquitination of pIκBα by the E3 family member proteins. Immunopurified FLAG-tagged proteins were incubated with ^35 S-labeled IκBα/NF-κB complexes, treated (−/+IKK) as indicated and subject to ubiquitination in the presence of ATPγS, ubiquitin. E1 and UBC5C. The IκBα substrate (composed of full-length and two degradation products), pIκBα-polyubiquitin conjugates and molecular size markers are indicated on the left.
The ability of these proteins to bind pIκBα specifically and assist in its ubiquitination was examined in a cell-free system. […] The bound material was analyzed by Western blotting with anti-IκBα and anti-FLAG antibodies. […]

A further assay deals with T2, pIκBα (Homo sapiens, UniProt P25963).
T2 construct: The IκBα/NF-κB complex was immunopurified from HeLa cells; endogenous in cells; host or cells: HeLa cells
T2 sequence (P25963 whole entry): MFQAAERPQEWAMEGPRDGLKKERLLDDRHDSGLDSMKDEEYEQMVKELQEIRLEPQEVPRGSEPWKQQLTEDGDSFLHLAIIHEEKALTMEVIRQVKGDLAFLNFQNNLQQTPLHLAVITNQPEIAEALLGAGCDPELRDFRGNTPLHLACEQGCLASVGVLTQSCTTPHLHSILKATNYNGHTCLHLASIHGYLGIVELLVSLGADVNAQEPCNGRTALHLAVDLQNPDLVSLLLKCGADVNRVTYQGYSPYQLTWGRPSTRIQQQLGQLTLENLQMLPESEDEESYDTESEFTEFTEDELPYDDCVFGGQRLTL
T2 sequence (Q04206 whole entry partner): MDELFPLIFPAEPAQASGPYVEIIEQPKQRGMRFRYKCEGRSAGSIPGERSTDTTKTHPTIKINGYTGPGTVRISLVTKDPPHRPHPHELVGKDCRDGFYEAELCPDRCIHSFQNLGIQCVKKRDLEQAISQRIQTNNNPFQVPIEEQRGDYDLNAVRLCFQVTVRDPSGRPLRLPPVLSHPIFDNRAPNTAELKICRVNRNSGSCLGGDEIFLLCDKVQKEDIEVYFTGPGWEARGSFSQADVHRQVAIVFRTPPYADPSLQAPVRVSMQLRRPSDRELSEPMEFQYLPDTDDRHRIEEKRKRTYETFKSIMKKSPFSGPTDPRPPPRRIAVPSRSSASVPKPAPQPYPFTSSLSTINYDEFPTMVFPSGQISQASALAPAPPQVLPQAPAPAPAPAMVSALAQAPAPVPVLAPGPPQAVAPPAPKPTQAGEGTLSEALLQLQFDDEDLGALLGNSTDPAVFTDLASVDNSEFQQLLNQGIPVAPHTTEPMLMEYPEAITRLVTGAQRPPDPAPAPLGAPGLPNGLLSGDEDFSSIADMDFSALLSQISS
The assay can be described thus: Binding of immobilized FLAG-tagged E3 family members to IκBα/NF-κB complex (Western blot). To be noted: FIG. 11A. The procedure: as §1
The ability of these proteins to bind pIκBα specifically and assist in its ubiquitination was examined in a cell-free system. The IκBα/NF-κB complex was immunopurified from HeLa cells and the immune complex was either phosphorylated with IKK2-EE or mock-phosphorylated as described above. It was then incubated with the following immobilized FLAG-tagged E3 family members immunoprecipitated from transfected 293 cells: mouse β-TrCP (mβ-TrCP), human β-TrCP (hβ-TrCP), human β-TrCP with a deletion of the F box region residues 122-168 (Δβ-TrCP) and the Drosophila Slimb protein. The bound material was analyzed by Western blotting with anti-IκBα and anti-FLAG antibodies. […] Furthermore, β-TrCP binding was abrogated by a peptide representing the pIκBα recognition motif (pp10; DRHDS(PO3)GLDS(PO3)M (SEQ ID NO:29); see FIG. 11B, lane 3), but not by the control peptide (lane 4), specifying the site of pIκBα recognition of the conserved DS(PO3)GLDS(PO3) (SEQ ID NO:30) sequence.

In assay [4] the test system is NF-κB activation in Jurkat cells. The assay is described as follows: κB-dependent luciferase assay in P/I-stimulated Jurkat cells. The format is cell-based. To be noted: transient over-expression in stimulated Jurkat cells. The source says: FIGS. 12A and 12B illustrate inhibition of IκBα degradation and NF-κB activation by overexpression of Δβ-TrCP, a dominant negative molecule. FIG. 12A is a graph depicting the results of a κB-dependent luciferase assay in P/I-stimulated Jurkat cells transfected with κB-Luc reporter plasmid and the indicated expression vectors (i.e., from left to right, vector alone, vector encoding human β-TrCP, vector encoding human β-TrCP with a deletion of the F box region and vector encoding Drosophila Slimb protein). NF-κB activity is shown as relative (fold) luciferase activity, the non-stimulated empty FLAG vector being the reference (single-fold). FIG. 12B depicts the results of western blot analysis of IκBα of phorbol-ester and Ca^++ ionophore [P/I]-stimulated and non-stimulated Jurkat cells transfected with an empty FLAG vector or Δβ-TrCP. The post-stimulation interval (min) is indicated.

Non-standard residues stand in square brackets, D forms with d. No end group written: not given here. pS = N[C@@H](COP(=O)(O)O)C(=O)O

With “pp12: pIκBα peptide CDRHDS[PO3]GLDS[PO3]; SEQ ID NO:22 (CDRHD[pS]GLD[pS]; listed as Homo sapiens)”, the “formation of polyubiquitin-IκBα conjugates” value in assay [1] is given as “abolished”. Besides, the “ubiquitin-ligase activity associated with the pIκB-complex” value in assay [2] is “abrogated”. Also, the “association of distinctive 35S-protein bands with pIκBα” value in assay [3] is “three bands were eliminated”.
In the case of “pp10: peptide representing the pIκBα recognition motif, DRHDS(PO3)GLDS(PO3)M, SEQ ID NO:29 (DRHD[pS]GLD[pS]M; listed as Homo sapiens)”, the “effect of peptide on β-TrCP-pIκBα binding” value with β-TrCP was “abrogated”.

B1: hβ-TrCP: FLAG-tagged human β-TrCP, E3 family member (protein)
chain: MDPAEAVLQEKALKFMNSSEREDCNNGEPPRKIIPEKNSLRQTYNSCARLCLNQETVCLASTAMKTENCVAKTKLANGTSSMIVPKQRKLSASYEKEKELCVKYFEQWSESDQVEFVEHLISQMCHYQHGHINSYLKPMLQRDFITALPARGLDHIAENILSYLDAKSLCAAELVCKEWYRVTSDGMLWKKLIERMVRTDSLWRGLAERRGWGQYLFKNKPPDGNAPPNSFYRALYPKIIQDIETIESNWRCGRHSLQRIHCRSETSKGVYCLQYDDQKIVSGLRDNTIKIWDKNTLECKRILTGHTGSVLCLQYDERVIITGSSDSTVRVWDVNTGEMLNTLIHHCEAVLHLRFNNGMMVTCSKDRSIAVWDMASPTDITLRRVLVGHRAAVNVVDFDDKYIVSASGDRTIKVWNTSTCEFVRTLNGHKRGIACLQYRDRLVVSGSSDNTIRLWDIECGACLRVLEGHEELVRCIRFDNKRIVSGAYDGKIKVWDLVAALDPRAPAGTLCLRTLVEHSGRVFRLQFDEFQIVSSSHDDTILIWDFLNDPAAQAEPPRSPSRTYTYISR
modifications: left off: small tags and cut ends
notes: FLAG-tagged human β-TrCP, E3 family member
B1: the “relative binding of IκBα / pIκBα” value with pIκBα (comparison between family members) is given as “far better than the highly homologous Drosophila protein”. In addition, the “binding to IKK-phosphorylated versus mock-phosphorylated IκBα” value in the assay with pIκBα (FLAG-tagged protein from transfected 293 cells) is recorded as “exclusively bound IKK-phosphorylated, but not mock-phosphorylated, IκBα”. Moreover, the “activation of NF-κB” value in assay [4] was “not inhibitory”.

For the origin of these results see patent publication US8263326B2, “Compounds and methods for modulating activation of NF-κB” (Signal Pharmaceuticals, LLC, priority 1998, dated 2012).
